Laboratory results taken from publication PMC5774749, “Coiled-coil formation of the membrane-fusion K/E peptides viewed by electron paramagnetic resonance” (PLoS ONE, 2018).
*: point of attachment. MTSL = CC1(C)C=C(CS*)C(C)(C)N1[O]

B1: K (peptide)
peptide: Ac-KIAALKEKIAALKEKIAALKEGW-NH2
notes: designed coiled-coil zipper peptide K; printed as Ac-(KIAALKE)3-GW-NH2, the repeat written out three times; unlabelled peptide added to E-SL in the room-temperature cw-EPR; the details of these samples are in S1 Text; also called K-peptide; peptide K; source: synthetic peptide
B2: E-SL (peptide)
peptide: Ac-EIAALEKEIAALEKEIAALEKGYC(MTSL)-NH2
SMILES: CC[C@H](C)[C@H](NC(=O)[C@H](CCC(=O)O)NC(C)=O)C(=O)N[C@@H](C)C(=O)N[C@@H](C)C(=O)N[C@@H](CC(C)C)C(=O)N[C@@H](CCC(=O)O)C(=O)N[C@@H](CCCCN)C(=O)N[C@@H](CCC(=O)O)C(=O)N[C@H](C(=O)N[C@@H](C)C(=O)N[C@@H](C)C(=O)N[C@@H](CC(C)C)C(=O)N[C@@H](CCC(=O)O)C(=O)N[C@@H](CCCCN)C(=O)N[C@@H](CCC(=O)O)C(=O)N[C@H](C(=O)N[C@@H](C)C(=O)N[C@@H](C)C(=O)N[C@@H](CC(C)C)C(=O)N[C@@H](CCC(=O)O)C(=O)N[C@@H](CCCCN)C(=O)NCC(=O)N[C@@H](Cc1ccc(O)cc1)C(=O)N[C@@H](CSSCC1=CC(C)(C)N([O])C1(C)C)C(N)=O)[C@@H](C)CC)[C@@H](C)CC
notes: designed coiled-coil zipper peptide E; printed as Ac-(EIAALEK)3-GYC(SL)-NH2, the repeat written out three times; degree of spin labelling around 80%; also called E-peptide, spin labelled at the C-terminus; E-Cys
B3: K-SL (peptide)
peptide: Ac-KIAALKEKIAALKEKIAALKEGWC(MTSL)-NH2
SMILES: CC[C@H](C)[C@H](NC(=O)[C@H](CCCCN)NC(C)=O)C(=O)N[C@@H](C)C(=O)N[C@@H](C)C(=O)N[C@@H](CC(C)C)C(=O)N[C@@H](CCCCN)C(=O)N[C@@H](CCC(=O)O)C(=O)N[C@@H](CCCCN)C(=O)N[C@H](C(=O)N[C@@H](C)C(=O)N[C@@H](C)C(=O)N[C@@H](CC(C)C)C(=O)N[C@@H](CCCCN)C(=O)N[C@@H](CCC(=O)O)C(=O)N[C@@H](CCCCN)C(=O)N[C@H](C(=O)N[C@@H](C)C(=O)N[C@@H](C)C(=O)N[C@@H](CC(C)C)C(=O)N[C@@H](CCCCN)C(=O)N[C@@H](CCC(=O)O)C(=O)NCC(=O)N[C@@H](Cc1c[nH]c2ccccc12)C(=O)N[C@@H](CSSCC1=CC(C)(C)N([O])C1(C)C)C(N)=O)[C@@H](C)CC)[C@@H](C)CC
notes: designed coiled-coil zipper peptide K; printed as Ac-(KIAALKE)3-GWC(SL)-NH2, the repeat written out three times; degree of spin labelling around 70%; also called K-peptide, spin labelled at the C-terminus
B4: E (peptide)
peptide: Ac-EIAALEKEIAALEKEIAALEKGY-NH2
notes: designed coiled-coil zipper peptide E; printed as Ac-(EIAALEK)3-GY-NH2, the repeat written out three times; unlabelled peptide added to K-SL or SL-K in the room-temperature cw-EPR; the details of these samples are in S1 Text; also called E-peptide; peptide E; source: synthetic peptide
B5: SL-K (peptide)
peptide: Ac-C(MTSL)KIAALKEKIAALKEKIAALKEGW-NH2
SMILES: CC[C@H](C)[C@H](NC(=O)[C@H](CCCCN)NC(=O)[C@H](CSSCC1=CC(C)(C)N([O])C1(C)C)NC(C)=O)C(=O)N[C@@H](C)C(=O)N[C@@H](C)C(=O)N[C@@H](CC(C)C)C(=O)N[C@@H](CCCCN)C(=O)N[C@@H](CCC(=O)O)C(=O)N[C@@H](CCCCN)C(=O)N[C@H](C(=O)N[C@@H](C)C(=O)N[C@@H](C)C(=O)N[C@@H](CC(C)C)C(=O)N[C@@H](CCCCN)C(=O)N[C@@H](CCC(=O)O)C(=O)N[C@@H](CCCCN)C(=O)N[C@H](C(=O)N[C@@H](C)C(=O)N[C@@H](C)C(=O)N[C@@H](CC(C)C)C(=O)N[C@@H](CCCCN)C(=O)N[C@@H](CCC(=O)O)C(=O)NCC(=O)N[C@@H](Cc1c[nH]c2ccccc12)C(N)=O)[C@@H](C)CC)[C@@H](C)CC
notes: designed coiled-coil zipper peptide K; printed as Ac-C(SL)-(KIAALKE)3-GW-NH2, the repeat written out three times; degree of spin labelling around 80%; also called K-peptide, spin labelled at the N-terminus; Cys-K

Columns and labels:
[1] = molecular target: B2; experiment: continuous-wave EPR at room temperature; solution; rotation-correlation time of the spin-labelled peptide with and without the unlabelled partner; described in S1 Text; settings: both partners purified
[2] = molecular target: B3; experiment: continuous-wave EPR of frozen solution; 120 K, 9.7 GHz; PBS with 20% (wt) glycerol; total peptide 0.3 mM, mixtures equimolar; line broadening against free MTSL, distances from simulation of the spectra; settings: both partners purified
[3] = molecular target: B5; experiment: DEER (double electron-electron resonance); frozen solution, 40 K, 9.7 GHz; PBS with 20% (wt) glycerol; total peptide 0.3 mM, mixtures equimolar; same samples as for cw-EPR; Tikhonov regularization; settings: both partners purified
[4] = molecular target: the molecule itself; experiment: continuous-wave EPR of frozen solution; 120 K, 9.7 GHz; PBS with 20% (wt) glycerol; total peptide 0.3 mM, mixtures equimolar; line broadening against free MTSL, distances from simulation of the spectra
[5] = molecular target: B3; experiment: continuous-wave EPR at room temperature; solution; rotation-correlation time of the spin-labelled peptide with and without the unlabelled partner; described in S1 Text; settings: both partners purified
[6] = molecular target: B5; experiment: as above; settings: both partners purified
[7] = molecular target: the molecule itself; experiment: DEER (double electron-electron resonance); frozen solution, 40 K, 9.7 GHz; PBS with 20% (wt) glycerol; total peptide 0.3 mM, mixtures equimolar; same samples as for cw-EPR; Tikhonov regularization

B1: binds [1].

B2: binds [2]; binds [3].

B3: binds [4].

B4: binds [5]; binds [6].

B5: binds [7].
